Reference: patent US10337022B2, “Methods of increasing root biomass in plants” (Agresearch Limited, priority 2014, dated 2019)

Key:
[1] = molecular target: T1, NINJA (Arabidopsis thaliana, UniProt Q9SV55); experiment: Yeast two hybrid (Y2H) interaction with NINJA; assay type: binding; details: PPD1 as bait protein
T1 construct: expressed in transfected cells; host or cells: yeast strain MaV203
T1 sequence (Q9SV55 with tags, fused parts or gaps): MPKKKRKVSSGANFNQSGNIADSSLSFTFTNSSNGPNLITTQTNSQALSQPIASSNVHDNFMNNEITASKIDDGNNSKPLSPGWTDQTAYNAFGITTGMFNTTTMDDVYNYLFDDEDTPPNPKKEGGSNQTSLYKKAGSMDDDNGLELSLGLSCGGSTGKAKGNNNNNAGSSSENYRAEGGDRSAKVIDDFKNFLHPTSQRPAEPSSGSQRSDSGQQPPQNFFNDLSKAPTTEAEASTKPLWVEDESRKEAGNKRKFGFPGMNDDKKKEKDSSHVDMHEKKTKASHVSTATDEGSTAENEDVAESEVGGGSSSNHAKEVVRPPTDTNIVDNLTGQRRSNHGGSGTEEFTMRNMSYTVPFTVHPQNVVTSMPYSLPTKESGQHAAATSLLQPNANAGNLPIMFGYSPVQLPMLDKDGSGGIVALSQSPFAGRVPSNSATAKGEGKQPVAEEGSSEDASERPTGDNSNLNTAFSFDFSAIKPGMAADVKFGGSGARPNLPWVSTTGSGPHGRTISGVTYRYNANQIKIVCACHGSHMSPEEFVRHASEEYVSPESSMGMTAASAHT
Method: Combinations of bait and prey constructs were used to co-transform yeast strain MaV203 (Invitrogen), with selection on synthetic dropout (SD) SD/-Leu/-Trp agar plates. Transformed strains were tested for interactions using 10 μl droplets of 1 in 10 and 1 in 100 dilutions on SD/-Leu/-Trp/-His plates with different concentrations of 3-aminotriazol (3-AT) (Sigma).

[2] = molecular target: T2, DELLA (RGA1) (Arabidopsis thaliana, UniProt Q9SLH3); experiment: Yeast two-hybrid (Y2H) interaction with DELLA (RGA1); assay type: binding; details: PPD1-DBD as bait, selective medium with 15 mM 3AT
T2 construct: expressed in transfected cells; host or cells: yeast strain MaV203
T2 sequence (Q9SLH3 with tags, fused parts or gaps): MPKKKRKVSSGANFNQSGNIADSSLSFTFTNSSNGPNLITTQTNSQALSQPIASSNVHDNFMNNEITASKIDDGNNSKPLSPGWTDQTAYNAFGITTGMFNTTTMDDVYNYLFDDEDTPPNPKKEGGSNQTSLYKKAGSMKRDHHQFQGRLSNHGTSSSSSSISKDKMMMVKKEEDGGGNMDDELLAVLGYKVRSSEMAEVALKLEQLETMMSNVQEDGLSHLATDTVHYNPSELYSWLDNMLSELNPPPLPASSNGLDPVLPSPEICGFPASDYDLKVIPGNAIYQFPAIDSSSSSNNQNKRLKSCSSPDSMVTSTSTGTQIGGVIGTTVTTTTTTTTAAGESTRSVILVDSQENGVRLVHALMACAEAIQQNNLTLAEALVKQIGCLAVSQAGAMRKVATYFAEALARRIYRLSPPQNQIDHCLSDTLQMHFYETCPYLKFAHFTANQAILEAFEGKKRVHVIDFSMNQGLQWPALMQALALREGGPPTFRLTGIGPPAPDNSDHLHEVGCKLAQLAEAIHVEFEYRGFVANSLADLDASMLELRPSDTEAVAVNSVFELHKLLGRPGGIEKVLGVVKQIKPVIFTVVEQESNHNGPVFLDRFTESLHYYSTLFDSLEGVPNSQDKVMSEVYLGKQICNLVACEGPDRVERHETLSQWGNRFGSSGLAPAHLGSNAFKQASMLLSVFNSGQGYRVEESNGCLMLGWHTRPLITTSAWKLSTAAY
Source text: The ProQuest two-hybrid system (Invitrogen) was used to analyse interactions between PPD1, and RGA1. Full length coding sequences of PPD1, together with truncation or deletion derivatives of PPD1 (PPD1Δppd, PPD1Δtify, and PPD1Δjas*) (FIG. 4), were Gateway sub-cloned into pDEST32 (N-terminal GAL4DBD) or pDEST22 (N-terminal GAL4AD). When translated these generated the following peptide sequences od SEQ ID NO: 58, 68, 69, 70, 71, 72, which are PPD1-DBD, RGA1, RGA1-AD, PPD1-ppd-DBD, PPD1-tify-DBD, PP1-jas*-DBD respectively.
Combinations of bait and prey constructs were used to co-transform yeast strain MaV203 (Invitrogen), with selection on synthetic dropout (SD) SD/-Leu/-Trp agar plates. Transformed strains were tested for interactions using 10 μl droplets of 1 in 10 and 1 in 100 dilutions on SD/-Leu/-Trp/-His plates with different concentrations of 3-aminotriazol (3-AT) (Sigma). The PPD1-RGA1 interaction was tested with PPD1-DBD used as bait. Transformed yeast was spotted as a ten-fold dilution on control medium (−2) or selective medium (−3) with 15 mM 3AT. Controls were empty vectors, DBD, GAL4 DNA binding domain, AD, GAL4 activation domain (FIG. 4).

[3] = test system: PEAPOD deletion mutant Δppd Arabidopsis thaliana ecotype Landsberg erecta; experiment: Complementation of the Arabidopsis Δppd mutant leaf phenotype; assay type: in vivo; details: optimized PEAPOD coding sequence under CaMV35s promoter, seedlings (FIG. 13)
Source text: The functionality of any PEAPOD sequence can be confirmed by complementation of the Arabidopsis Δppd mutant leaf phenotype. Complementation of the Arabidopsis Δppd mutant leaf phenotype was first used to identify the Arabidopsis PPD gene (White 2006). This was seen by a restoration of the wild type flattened leaf phenotype and normal rosette shape as opposed to the domed leaf and the twisting of the rosette to a “propeller” phenotype.
Constructs above can be transformed into Arabidopsis by the floral dip infiltration method (Clough and Bent, 1998 Plant J 16, 735-43). The Δppd line is transformed to express the PPD polypeptides by standard techniques. Transgenic plants are confirmed by standard PCR analysis techniques with a combination of transgene-specific and T-DNA primers.
Complementation of the Δppd line to produce a wild-type leaf and rosette phenotype in T1 seedlings (the off-spring of the infiltrated plant) confirms PEAPOD functionality of the introduced gene, which can be shown in photographs.

B1: Arabidopsis PPD: Arabidopsis thaliana PEAPOD 1 protein, At4g14713, SEQ ID NO: 1 (protein, listed as Arabidopsis thaliana)
chain: MDVGVSPAKSILAKPLKLLTEEDISQLTREDCRKFLKDKGMRRPSWNKSQAIQQVLSLKALYEPGDDSGAGIFRKILVSQPVNPPRVTTTLIEPSNELEACGRVSYPEDNGACHRMDSPRSAEFSGGSGHFVSEKDGHKTTISPRSPAETSELVGQMTIFYSGKVNVYDGIPPEKARSIMHFAANPIDLPENGIFASSRMISKLISKEKMMELPQKGLEKANSSRDSGMEGQANRKVSLQRYREKRKDRKFSKAKKCPGVASSSLEMFLNCQPRMKAAYSQNLGCTGSPLHSQSPESQTKSPNLSVDLNSEGI
- Y2H interaction with NINJA [1]: direct interactor
- Y2H binding to DELLA (RGA1) [2]: can directly bind
- PEAPOD functionality by complementation of Δppd mutant [3]: functionally equivalent
